Substitutions are numbered along the chain they refer to. Numbers in names are those of the source.
T1: IL13RA1
T1 construct: coated protein in the ELISA; also called IL13RA1-Fc-His (R&D Systems)
T1 chain: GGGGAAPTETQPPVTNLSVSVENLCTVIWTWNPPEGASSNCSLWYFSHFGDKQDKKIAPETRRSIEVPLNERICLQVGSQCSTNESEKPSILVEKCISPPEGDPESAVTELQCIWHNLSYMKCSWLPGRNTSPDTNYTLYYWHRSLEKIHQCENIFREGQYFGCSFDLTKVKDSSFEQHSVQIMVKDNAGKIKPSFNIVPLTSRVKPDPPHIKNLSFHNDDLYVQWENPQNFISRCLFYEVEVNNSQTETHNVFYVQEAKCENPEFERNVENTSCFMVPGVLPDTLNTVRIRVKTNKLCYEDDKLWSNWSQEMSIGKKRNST

B1: HW-25 chimeric rabbit-human IgG1 LA/LA/PG (antibody, V domains shown)
VH: QSLEESGGRLVTPGTPLTLTCTVSGFSLSSYAMGWVRQAPGKGLEWIGIIDSRGSTYYATWAKGRFTISKTSTTVDLKITSPTTEDTATYFCAREDSYYYDSFNLWGPGTLVTVSS
VL: SFVLTQPASVQVNLGQTVSLTCTADTLSRRYASWYQQKPGQAPVLLIYRDTSRPSGVPDRFSGSSSGNTATLTISGAQAGDEADYYCATSDGSGSSYQCVFGGGTQLTVTG
notes: Fc-silenced (L234A/L235A/P329G) IgG1, lambda; Alexa Fluor 647-labeled in single-step flow cytometry; Cluster C-1
B2: HW-17 chimeric rabbit-human IgG1 LA/LA/PG (antibody, V domains shown)
VH: QSLGESRGRLVTPDETLTLTCTVSGIDLSSNAMSWVRQAPGEGLEWIGTINTGGRAYYASWAKGRFTISRTSTTVDLKMTSLTTEDTATYFCARERYSDGRAYDIWGPGTLVTISS
VL: B1 VL with R49T, T51S, S52N, V57I, S90D, S96I, C99Y
notes: as for B1
B3: HW-1 chimeric rabbit-human IgG1 LA/LA/PG (antibody, V domains shown)
VH: QSLEESGGGLFKPTDTLTLTCTASGFSLGSSYAISWVRQAPGKELEWIGTIDSGRAYYARWAKSRSTITRNTNENTVTLKMTSLTAADTATYFCARDLIPTYSQDIWGPGTLVTISS
VL: B1 VL with S95N, C99Y, G111S
notes: Fc-silenced (L234A/L235A/P329G) IgG1, lambda; Alexa Fluor 647-labeled in single-step flow cytometry; Prototype of cluster C-1

Target: T1, IL13RA1
Assay: ELISA on coated IL13RA1-Fc-His
Experimental: Recombinant purified ECDs (50-150 ng) of each putative target protein were coated, incubated with 150 ng of the indicated primary antibody, and binding was detected using a peroxidase-conjugated anti-human Fab secondary antibody. Heatmap represents averages of technical triplicates. (8B) Target validation via siRNA knockdown. H929 cells were transfected with siRNA pools targeting the putative antibody targets ICAM1, CADM1, and PTPRG. Cells were then subjected to cognate IgG binding analysis via flow cytometry. (NT, non-targeting siRNA).
ELISA ELISA was conducted as described previously. Briefly, 50-150 ng of antigen was coated overnight in half-area 96-well plates at 4° C., blocked with 3% BSA at 37° C. for 1 h, and 150 ng of chimeric rabbit/human IgG1 was added, incubating for 2 h at 37° C. […] After incubating at 37° C. for 15 min-1 h (depending on intensity of controls), data were acquired using a SpectraMax M5 plate reader (Molecular Devices).

| Binder | binding result |
| --- | --- |
| B1 | no binding (tested: 150 ng IgG1 per well) |
| B2 | no binding (tested: 150 ng IgG1 per well) |
| B3 | no binding (tested: 150 ng IgG1 per well) |

Target: T2, PTPRG on U266 cells (human, UniProt P23470)
T2 construct: endogenous on U266 multiple myeloma cells; also called HW-1 target on U266
T2 sequence (P23470 20-1445 limits assumed): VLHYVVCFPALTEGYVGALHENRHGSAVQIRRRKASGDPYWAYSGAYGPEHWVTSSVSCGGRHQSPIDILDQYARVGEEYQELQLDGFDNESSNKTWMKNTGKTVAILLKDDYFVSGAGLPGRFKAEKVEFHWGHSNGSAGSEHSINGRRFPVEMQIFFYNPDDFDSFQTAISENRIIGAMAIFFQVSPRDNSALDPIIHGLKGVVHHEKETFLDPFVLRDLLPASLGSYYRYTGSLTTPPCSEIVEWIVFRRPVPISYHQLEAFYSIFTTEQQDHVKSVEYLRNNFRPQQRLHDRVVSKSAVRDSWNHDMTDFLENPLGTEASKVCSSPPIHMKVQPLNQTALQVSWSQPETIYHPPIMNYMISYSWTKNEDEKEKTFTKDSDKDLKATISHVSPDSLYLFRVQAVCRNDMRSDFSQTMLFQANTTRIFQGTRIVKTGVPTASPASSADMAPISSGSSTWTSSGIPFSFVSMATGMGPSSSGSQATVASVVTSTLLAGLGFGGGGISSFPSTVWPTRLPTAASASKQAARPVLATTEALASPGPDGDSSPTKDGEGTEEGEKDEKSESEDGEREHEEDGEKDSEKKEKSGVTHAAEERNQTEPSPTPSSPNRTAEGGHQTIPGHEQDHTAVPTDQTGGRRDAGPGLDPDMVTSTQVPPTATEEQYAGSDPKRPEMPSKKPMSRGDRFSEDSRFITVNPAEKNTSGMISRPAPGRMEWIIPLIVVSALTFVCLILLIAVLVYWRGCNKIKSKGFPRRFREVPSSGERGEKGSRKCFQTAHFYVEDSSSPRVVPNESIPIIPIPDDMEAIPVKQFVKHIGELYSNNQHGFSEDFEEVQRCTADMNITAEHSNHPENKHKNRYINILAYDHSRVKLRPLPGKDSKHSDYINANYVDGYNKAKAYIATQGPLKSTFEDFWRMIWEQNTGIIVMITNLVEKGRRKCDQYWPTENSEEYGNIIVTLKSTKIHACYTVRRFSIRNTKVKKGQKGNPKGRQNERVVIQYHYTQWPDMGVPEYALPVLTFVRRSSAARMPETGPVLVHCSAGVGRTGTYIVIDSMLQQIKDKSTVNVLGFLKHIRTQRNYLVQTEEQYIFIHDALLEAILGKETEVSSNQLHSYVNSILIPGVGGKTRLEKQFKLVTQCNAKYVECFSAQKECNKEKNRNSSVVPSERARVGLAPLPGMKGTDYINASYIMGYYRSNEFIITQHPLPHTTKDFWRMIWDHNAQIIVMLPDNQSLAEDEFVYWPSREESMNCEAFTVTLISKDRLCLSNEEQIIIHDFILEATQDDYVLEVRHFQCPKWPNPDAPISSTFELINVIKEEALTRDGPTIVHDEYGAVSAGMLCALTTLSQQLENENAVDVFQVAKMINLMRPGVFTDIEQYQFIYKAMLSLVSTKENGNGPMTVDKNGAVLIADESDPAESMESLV
Assay: flow cytometry, IgG1 on U266 cells
Experimental: Staining protocol. Cells were harvested (5×10⁴ cells per sample), washed once with phosphate-buffered saline (PBS) at RT, and a second time with ice-cold FACS buffer (PBS, 0.5% BSA, 2 mM EDTA, 0.1% NaN₃). Cells were stained in 50 μL of primary antibody for 30 min on ice, washed twice with 100 μL FACS buffer, stained with 50 μL of diluted secondary antibody, washed two more times in FACS, and then resuspended in 50 μL FACS buffer. Samples were acquired on an Accuri C6 Plus or a BD FACSCanto II flow cytometer (both from BD Biosciences). Data were analyzed using FlowJo version 10 software. Primary antibodies: Fab (10 μg/mL), IgG1 (0.1 to 50 μg/mL), or 25 μL polyclonal Fabs from periplasmic extracts. Polyclonal Fabs were produced by diluting bacterial stocks by a factor of 100 in autoinduction media and incubating overnight to induce expression as previously described. […] Viability stains: DAPI (Cell Signaling Technology) or SYTOX AADvanced Dead Cell Stain (Thermo Fisher Scientific). Labeling: The panel of chimeric rabbit/human IgG1s was labeled using the Alexa Fluor 647 Labeling Kit (Thermo Fisher Scientific, #A20173) to facilitate single-step staining. Competition: Unlabeled IgG1s were added at saturating concentrations of 60 μg/mL to block the target receptors, incubating on ice for 30 min, followed by the addition of an equal volume of the Alexa Fluor 647 labeled antibody at 2 μg/mL, and the mixture was incubated on ice for another 30 min.

| Binder | antibody-bound positive cells (%) |
| --- | --- |
| B1 | 69.6 |
| B2 | 85.2 |
| B3 | 84.4 |

Target: T3, PTPRG, endogenous in H929 multiple myeloma cells (human, UniProt P23470 20-1445)
T3 construct: Native protein on H929 cells (flow cytometry, siRNA knockdown) and in H929 lysates (IP/MS); also called phosphatase receptor type γ
T3 sequence (P23470 20-1445 limits assumed): as above
Assay: flow cytometry, H929 + vehicle; None 2.74

| Binder | Cells stained (%) |
| --- | --- |
| B1 | 97.2 |
| B2 | 99.3 |
| B3 | 99.4 |

Target: T3, PTPRG, endogenous in H929 multiple …
Assay: flow cytometry, H929 + CADM1 siRNA; None 0.89

| Binder | Cells stained (%) |
| --- | --- |
| B1 | 97.7 |
| B2 | 99.3 |
| B3 | 99.3 |

Target: T3, PTPRG, endogenous in H929 multiple …
Assay: flow cytometry, H929 + NT Green siRNA; None 416

| Binder | mAb binding (MFI) |
| --- | --- |
| B1 | 7680 |
| B2 | 18600 |
| B3 | 16000 |

Target: T3, PTPRG, endogenous in H929 multiple …
Assay: flow cytometry, H929 + NT Green siRNA; None 1.35

| Binder | Cells stained (%) |
| --- | --- |
| B1 | 95.7 |
| B2 | 99 |
| B3 | 99.4 |

Reference: US20260049134A1 (UNIVERSITY OF FLORIDA RESEARCH FOUNDATION, published 2026)
